# B1: Gamma-aminobutyric acid receptor-associated protein (Homo sapiens), O95166 (parent)
# chain: MKFVYKEEHPFEKRRSEGEKIRKKYPDRVPVIVEKAPKARIGDLDKKKYLVPSDLTVGQFYFLIRKRIHLRAEDALFFFVNNVIPPTSATMGQLYQEHHEEDFFLYIAYSDESVYGL
# partner: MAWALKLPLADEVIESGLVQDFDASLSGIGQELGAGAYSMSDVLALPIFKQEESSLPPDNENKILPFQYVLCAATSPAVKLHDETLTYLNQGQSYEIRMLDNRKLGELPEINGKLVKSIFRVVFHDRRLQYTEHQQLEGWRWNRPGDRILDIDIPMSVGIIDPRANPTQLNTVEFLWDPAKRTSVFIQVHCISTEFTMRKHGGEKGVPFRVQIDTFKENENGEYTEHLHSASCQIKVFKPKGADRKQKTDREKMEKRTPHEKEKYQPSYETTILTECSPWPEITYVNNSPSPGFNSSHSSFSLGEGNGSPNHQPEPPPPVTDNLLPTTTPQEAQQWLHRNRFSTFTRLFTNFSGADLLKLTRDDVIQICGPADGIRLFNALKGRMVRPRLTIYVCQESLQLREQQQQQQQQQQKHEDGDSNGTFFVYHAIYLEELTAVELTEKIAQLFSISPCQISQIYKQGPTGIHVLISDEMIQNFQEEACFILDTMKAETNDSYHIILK
# B2: Gamma-aminobutyric acid receptor-associated protein (Homo sapiens), O95166 (parent)
# chain: B1 chain
# partner: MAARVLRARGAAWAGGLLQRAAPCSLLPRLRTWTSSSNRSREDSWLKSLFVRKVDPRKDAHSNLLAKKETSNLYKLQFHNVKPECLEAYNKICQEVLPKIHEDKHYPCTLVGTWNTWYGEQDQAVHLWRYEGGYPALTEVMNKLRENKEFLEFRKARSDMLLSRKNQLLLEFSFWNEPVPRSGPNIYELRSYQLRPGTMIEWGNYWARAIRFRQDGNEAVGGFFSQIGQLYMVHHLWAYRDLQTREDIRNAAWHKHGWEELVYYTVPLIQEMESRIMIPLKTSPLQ
# B3: Gamma-aminobutyric acid receptor-associated protein (Homo sapiens), O95166 (parent)
# chain: B1 chain
# partner: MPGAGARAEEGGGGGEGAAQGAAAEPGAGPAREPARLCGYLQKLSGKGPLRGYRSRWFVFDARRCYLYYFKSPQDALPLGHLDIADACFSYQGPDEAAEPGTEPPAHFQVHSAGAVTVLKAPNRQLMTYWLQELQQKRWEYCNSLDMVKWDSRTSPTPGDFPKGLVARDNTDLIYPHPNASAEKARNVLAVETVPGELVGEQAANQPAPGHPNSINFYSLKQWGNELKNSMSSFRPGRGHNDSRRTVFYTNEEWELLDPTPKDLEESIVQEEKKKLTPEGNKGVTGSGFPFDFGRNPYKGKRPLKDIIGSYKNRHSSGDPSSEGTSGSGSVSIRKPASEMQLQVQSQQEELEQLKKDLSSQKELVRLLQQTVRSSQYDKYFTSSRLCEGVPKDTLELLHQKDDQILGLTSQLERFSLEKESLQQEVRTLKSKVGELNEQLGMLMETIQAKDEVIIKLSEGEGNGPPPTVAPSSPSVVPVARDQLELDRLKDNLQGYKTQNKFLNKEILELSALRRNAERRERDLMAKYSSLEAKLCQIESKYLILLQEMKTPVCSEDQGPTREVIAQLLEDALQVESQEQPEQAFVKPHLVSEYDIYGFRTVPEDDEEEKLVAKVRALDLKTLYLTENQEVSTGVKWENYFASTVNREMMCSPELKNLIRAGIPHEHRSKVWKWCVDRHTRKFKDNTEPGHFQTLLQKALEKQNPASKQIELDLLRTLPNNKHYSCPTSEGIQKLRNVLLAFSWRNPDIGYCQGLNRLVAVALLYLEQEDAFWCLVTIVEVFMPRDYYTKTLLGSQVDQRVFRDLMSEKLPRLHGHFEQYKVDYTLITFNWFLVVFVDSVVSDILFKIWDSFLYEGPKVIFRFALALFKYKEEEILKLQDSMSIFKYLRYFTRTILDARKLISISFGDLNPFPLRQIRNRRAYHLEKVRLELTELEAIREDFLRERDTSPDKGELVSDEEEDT
# B4: Gamma-aminobutyric acid receptor-associated protein (Homo sapiens), O95166 (parent)
# chain: B1 chain
# partner: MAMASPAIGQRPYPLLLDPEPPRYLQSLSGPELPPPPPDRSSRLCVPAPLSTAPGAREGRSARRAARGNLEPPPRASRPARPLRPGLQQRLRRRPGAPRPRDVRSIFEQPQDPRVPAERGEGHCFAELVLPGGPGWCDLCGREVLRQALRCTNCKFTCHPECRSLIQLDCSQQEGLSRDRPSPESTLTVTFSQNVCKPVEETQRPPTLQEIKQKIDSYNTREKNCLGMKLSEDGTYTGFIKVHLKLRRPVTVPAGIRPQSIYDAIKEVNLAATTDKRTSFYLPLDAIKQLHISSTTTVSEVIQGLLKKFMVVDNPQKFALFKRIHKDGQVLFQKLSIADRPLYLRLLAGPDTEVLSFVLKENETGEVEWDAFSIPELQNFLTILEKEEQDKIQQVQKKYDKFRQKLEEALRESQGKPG
# B5: Gamma-aminobutyric acid receptor-associated protein (Homo sapiens), O95166 (parent)
# chain: B1 chain
# partner: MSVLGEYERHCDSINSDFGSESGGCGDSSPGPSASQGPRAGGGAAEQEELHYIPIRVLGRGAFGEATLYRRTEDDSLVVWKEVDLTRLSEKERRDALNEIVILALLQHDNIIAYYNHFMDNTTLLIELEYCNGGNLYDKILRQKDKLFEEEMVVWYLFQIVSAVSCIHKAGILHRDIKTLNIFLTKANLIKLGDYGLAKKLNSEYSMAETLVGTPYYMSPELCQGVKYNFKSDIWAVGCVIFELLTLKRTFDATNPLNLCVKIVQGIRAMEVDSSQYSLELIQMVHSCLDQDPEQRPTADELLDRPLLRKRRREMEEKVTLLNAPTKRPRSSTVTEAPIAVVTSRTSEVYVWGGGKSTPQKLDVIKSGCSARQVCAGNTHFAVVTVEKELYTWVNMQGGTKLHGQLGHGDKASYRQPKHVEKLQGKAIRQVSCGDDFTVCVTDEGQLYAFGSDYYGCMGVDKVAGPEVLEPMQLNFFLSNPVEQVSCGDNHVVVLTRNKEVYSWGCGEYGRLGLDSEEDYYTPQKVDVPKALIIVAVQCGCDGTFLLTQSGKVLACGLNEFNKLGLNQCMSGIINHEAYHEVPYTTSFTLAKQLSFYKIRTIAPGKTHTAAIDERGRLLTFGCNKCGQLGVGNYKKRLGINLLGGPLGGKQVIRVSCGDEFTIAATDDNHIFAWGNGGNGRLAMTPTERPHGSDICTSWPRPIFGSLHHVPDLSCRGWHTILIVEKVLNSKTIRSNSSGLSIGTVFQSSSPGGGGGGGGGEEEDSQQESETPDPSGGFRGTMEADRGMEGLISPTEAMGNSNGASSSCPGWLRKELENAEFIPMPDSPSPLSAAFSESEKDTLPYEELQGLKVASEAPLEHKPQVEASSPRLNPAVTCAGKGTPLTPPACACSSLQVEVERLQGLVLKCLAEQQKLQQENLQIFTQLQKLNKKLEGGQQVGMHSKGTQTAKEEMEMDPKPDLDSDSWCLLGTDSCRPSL
# B6: Gamma-aminobutyric acid receptor-associated protein (Homo sapiens), O95166 (parent)
# chain: B1 chain
# partner: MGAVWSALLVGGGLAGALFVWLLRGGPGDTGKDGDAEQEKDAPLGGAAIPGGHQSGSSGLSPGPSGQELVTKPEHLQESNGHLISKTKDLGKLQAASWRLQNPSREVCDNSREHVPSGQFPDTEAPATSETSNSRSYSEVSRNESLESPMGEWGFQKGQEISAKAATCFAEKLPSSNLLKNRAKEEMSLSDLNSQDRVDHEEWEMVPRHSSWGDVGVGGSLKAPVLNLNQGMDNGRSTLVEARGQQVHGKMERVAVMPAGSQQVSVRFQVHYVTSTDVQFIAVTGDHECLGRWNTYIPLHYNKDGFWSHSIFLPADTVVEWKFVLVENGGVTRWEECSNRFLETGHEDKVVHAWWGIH
# B7: Gamma-aminobutyric acid receptor-associated protein (Homo sapiens), O95166 (parent)
# chain: B1 chain
# partner: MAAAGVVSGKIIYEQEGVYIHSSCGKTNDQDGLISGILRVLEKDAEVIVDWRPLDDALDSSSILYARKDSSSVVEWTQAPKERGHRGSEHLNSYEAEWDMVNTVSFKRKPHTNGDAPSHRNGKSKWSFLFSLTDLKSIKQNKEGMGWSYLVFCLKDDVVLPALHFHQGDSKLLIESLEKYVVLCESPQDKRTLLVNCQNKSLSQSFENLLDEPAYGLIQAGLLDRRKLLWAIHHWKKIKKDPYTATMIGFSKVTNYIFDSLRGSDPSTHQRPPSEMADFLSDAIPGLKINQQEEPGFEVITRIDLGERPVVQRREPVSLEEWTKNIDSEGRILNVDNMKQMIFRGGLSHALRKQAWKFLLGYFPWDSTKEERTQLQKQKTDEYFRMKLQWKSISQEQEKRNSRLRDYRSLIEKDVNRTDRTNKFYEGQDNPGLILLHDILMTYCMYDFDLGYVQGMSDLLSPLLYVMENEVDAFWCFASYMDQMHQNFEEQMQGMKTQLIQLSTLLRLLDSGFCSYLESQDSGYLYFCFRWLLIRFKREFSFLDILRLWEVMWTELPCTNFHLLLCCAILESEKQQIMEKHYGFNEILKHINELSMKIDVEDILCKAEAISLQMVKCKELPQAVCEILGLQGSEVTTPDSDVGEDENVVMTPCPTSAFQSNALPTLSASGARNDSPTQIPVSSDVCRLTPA
# B8: Gamma-aminobutyric acid receptor-associated protein (Homo sapiens), O95166 (parent)
# chain: B1 chain
# partner: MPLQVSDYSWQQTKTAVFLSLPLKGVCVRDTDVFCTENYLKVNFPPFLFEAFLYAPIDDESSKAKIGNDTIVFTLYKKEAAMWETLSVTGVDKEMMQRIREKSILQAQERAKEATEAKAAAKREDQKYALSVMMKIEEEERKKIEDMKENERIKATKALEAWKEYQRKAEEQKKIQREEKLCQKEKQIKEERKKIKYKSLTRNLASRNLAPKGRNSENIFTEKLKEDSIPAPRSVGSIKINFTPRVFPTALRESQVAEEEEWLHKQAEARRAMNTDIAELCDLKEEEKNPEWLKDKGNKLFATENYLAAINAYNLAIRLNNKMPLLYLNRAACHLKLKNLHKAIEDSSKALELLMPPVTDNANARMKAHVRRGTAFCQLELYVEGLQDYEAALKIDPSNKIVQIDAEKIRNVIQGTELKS
# B9: Gamma-aminobutyric acid receptor-associated protein (Homo sapiens), O95166 (parent)
# chain: B1 chain
# Variants of: B1
# Settings: with tfcp2_human TFCP2, Q12800
row,Variant,effect of a mutation on the interaction
1,R71A,increasing interaction
2,Y49A;L50A,decreasing interaction

# Variants of: B2
# Settings: with nips2_human NIPSNAP2, O75323
row,Variant,effect of a mutation on the interaction
1,Y49A;L50A,increasing interaction

# Variants of: B3
# Settings: with tbd2b_human TBC1D2B
row,Variant,effect of a mutation on the interaction
1,Y49A;L50A,decreasing interaction

# Variants of: B4
# Settings: with rasf5_human RASSF5, Q8WWW0
row,Variant,effect of a mutation on the interaction
1,Y49A;L50A,increasing interaction

# Variants of: B5
# Settings: with nek9_human NEK9, Q8TD19
row,Variant,effect of a mutation on the interaction
1,Y49A;L50A,decreasing interaction

# Variants of: B6
# Settings: with stbd1_human STBD1, O95210
row,Variant,effect of a mutation on the interaction
1,Y49A;L50A,decreasing interaction

# Variants of: B7
# Settings: with tbc15_human TBC1D15, Q8TC07
row,Variant,effect of a mutation on the interaction
1,Y49A;L50A,disrupting interaction

# Variants of: B8
# Settings: with daaf4_human DNAAF4, Q8WXU2
row,Variant,effect of a mutation on the interaction
1,Y49A;L50A,decreasing interaction

# Variants of: B9
# Settings: with atg2a_human ATG2A
row,Variant,effect of a mutation on the interaction
1,Y49A;L50A,decreasing interaction

# Variants of: B9
# Settings: with atg3_human ATG3, Q9NT62
# Sequence of atg3_human ATG3, Q9NT62 (Q9NT62 whole entry): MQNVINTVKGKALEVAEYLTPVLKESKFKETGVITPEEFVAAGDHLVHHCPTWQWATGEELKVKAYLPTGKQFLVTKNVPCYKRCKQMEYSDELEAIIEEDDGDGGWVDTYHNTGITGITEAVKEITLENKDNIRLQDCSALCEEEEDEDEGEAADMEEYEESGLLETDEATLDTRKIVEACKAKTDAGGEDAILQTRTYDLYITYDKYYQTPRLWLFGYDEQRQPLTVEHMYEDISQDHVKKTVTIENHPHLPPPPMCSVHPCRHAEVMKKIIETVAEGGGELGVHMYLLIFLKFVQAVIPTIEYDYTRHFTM
row,Variant,effect of a mutation on the interaction
1,Y49A;L50A,disrupting interaction

# Variants of: B9
# Settings: with echa_human HADHA
row,Variant,effect of a mutation on the interaction
1,Y49A;L50A,decreasing interaction

# Variants of: B9
# Settings: with nedd4_human NEDD4, P46934
# Sequence of nedd4_human NEDD4, P46934 (P46934 whole entry): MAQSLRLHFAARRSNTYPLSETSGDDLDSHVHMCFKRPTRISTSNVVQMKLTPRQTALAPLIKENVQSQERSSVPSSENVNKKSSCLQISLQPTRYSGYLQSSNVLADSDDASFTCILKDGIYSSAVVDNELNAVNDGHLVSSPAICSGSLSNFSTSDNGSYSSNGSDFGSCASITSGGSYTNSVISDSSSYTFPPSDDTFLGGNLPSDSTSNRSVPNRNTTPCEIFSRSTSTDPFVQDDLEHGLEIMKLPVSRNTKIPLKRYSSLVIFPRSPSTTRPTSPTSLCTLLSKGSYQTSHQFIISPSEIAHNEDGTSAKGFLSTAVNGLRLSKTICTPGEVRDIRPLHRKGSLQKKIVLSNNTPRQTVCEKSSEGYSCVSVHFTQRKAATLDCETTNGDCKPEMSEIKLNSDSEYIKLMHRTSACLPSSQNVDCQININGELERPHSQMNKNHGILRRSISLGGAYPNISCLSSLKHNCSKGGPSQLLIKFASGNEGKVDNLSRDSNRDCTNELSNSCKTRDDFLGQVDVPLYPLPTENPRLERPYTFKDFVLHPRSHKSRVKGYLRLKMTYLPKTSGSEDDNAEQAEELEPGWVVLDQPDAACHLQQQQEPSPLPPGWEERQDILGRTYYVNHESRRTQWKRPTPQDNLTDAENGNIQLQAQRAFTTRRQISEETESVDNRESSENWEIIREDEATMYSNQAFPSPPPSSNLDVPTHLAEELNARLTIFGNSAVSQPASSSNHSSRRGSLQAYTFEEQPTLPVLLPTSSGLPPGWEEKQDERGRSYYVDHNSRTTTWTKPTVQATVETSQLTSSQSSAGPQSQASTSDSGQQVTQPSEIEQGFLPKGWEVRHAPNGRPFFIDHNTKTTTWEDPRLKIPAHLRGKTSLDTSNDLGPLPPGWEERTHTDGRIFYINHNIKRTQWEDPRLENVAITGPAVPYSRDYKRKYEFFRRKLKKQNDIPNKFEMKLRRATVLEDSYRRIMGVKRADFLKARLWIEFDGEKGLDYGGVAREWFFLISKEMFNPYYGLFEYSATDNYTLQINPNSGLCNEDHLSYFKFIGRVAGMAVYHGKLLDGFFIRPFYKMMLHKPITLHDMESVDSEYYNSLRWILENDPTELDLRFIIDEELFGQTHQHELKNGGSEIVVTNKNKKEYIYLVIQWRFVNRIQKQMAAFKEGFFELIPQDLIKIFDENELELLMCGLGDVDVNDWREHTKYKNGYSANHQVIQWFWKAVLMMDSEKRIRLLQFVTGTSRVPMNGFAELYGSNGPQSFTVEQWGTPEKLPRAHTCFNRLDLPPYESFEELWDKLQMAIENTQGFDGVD
row,Variant,effect of a mutation on the interaction
1,Y49A;L50A,disrupting interaction

# Source: IntAct's records for PubMed 20562859
